Paper PMC5240526, “ATPase activity tightly regulates RecA nucleofilaments to promote homologous recombination”

How the values were obtained:
RecA wild type [1] = target: T1, RecA wild type (Escherichia coli, UniProt P0A7G6 2-353); test: CE-LIFP; 0.01-3.0 mM ATP; 16 uM RecA; four complexes; 20 mM Tris-HCl pH 7.4, 10 mM Mg2+, 10 nM oligo, 0-3.0 uM RecA, 37 C 10 min; CE in 25 mM Tris, 192 mM glycine, 0.5 mM Ca2+, pH 8.3, room temperature; conditions: protein: recombinant; label: 5'-TMR
RecA wild type [2] = target: T1, RecA wild type; test: CE-LIFP; ATP, 10 mM Mg2+; six complexes (1-6 RecA), mainly 1:4 DNA:RecA at 1.0 mM ATP; 20 mM Tris-HCl pH 7.4, 10 mM Mg2+, 10 nM oligo, 0-3.0 uM RecA, 37 C 10 min; CE in 25 mM Tris, 192 mM glycine, 0.5 mM Ca2+, pH 8.3, room temperature; conditions: protein: recombinant; label: 5'-TMR
RecA wild type [3] = target: T1, RecA wild type; test: CE-LIFP; 0.1 mM ATPgS, 10 mM Mg2+; 3.0 uM RecA; saturated filament; 20 mM Tris-HCl pH 7.4, 10 mM Mg2+, 10 nM oligo, 0-3.0 uM RecA, 37 C 10 min; CE in 25 mM Tris, 192 mM glycine, 0.5 mM Ca2+, pH 8.3, room temperature; conditions: protein: recombinant; label: 5'-TMR
RecA wild type [4] = target: T1, RecA wild type; test: electron microscopy; 0.1 mM ATPgS; 3.0 uM RecA, 300 nM DNA; saturated filament; 20 mM Tris-HCl pH 7.4, 10 mM Mg2+, 10 nM oligo, 0-3.0 uM RecA, 37 C 10 min; CE in 25 mM Tris, 192 mM glycine, 0.5 mM Ca2+, pH 8.3, room temperature; conditions: protein: recombinant
RecA wild type [5] = target: T1, RecA wild type; test: CE-LIFP; ATP, 10 mM Mg2+; 3.0 uM RecA; mainly unsaturated filament; 20 mM Tris-HCl pH 7.4, 10 mM Mg2+, 10 nM oligo, 0-3.0 uM RecA, 37 C 10 min; CE in 25 mM Tris, 192 mM glycine, 0.5 mM Ca2+, pH 8.3, room temperature; conditions: protein: recombinant; label: 5'-TMR
RecA wild type [6] = target: T1, RecA wild type; test: CE-LIFP; 0.01-3.0 mM ATP; 16 uM RecA; five complexes; 20 mM Tris-HCl pH 7.4, 10 mM Mg2+, 10 nM oligo, 0-3.0 uM RecA, 37 C 10 min; CE in 25 mM Tris, 192 mM glycine, 0.5 mM Ca2+, pH 8.3, room temperature; conditions: protein: recombinant; label: 5'-TMR

T1 sequence (P0A7G6 2-353): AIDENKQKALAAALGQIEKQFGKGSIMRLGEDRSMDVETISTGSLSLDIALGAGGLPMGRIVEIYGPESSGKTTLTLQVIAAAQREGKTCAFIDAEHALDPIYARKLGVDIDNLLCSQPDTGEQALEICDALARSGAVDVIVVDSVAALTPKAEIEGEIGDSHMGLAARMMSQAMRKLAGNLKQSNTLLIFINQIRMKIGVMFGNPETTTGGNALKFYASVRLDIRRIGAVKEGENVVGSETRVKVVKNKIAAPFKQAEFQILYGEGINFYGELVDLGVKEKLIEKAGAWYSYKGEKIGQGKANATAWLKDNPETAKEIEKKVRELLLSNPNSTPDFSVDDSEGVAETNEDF

## TTTTTTTTTTTT (ssDNA) [TMR-T12]
RecA wild type [1]
  binding result: binds

## TTTTTTTTTTTTTTTTTT (ssDNA) [TMR-T18]
RecA wild type [2]
  binding result: binds

B1: TMR-ss83mer (ssDNA)
DNA: TTTCCTACCTTAAGATCCTTCCAGTCTCCGCCGGCCAGTGTTACCCTTAGAGCTCATACCATTCGCCAATTTCTTCGCACGTT
RecA wild type [3]
  binding result: binds

B2: ss83mer (ssDNA)
DNA: B1 DNA
RecA wild type [4]
  binding result: binds

B3: TMR-ss175mer (ssDNA)
DNA: TCGTCTTTGGTATGTAGGTGGTCAACAATTTTAATTGCAGGGGCTTCGGCCCCTTACTTGAGGATAAATTATGTCTAATATTCAAACTGGCGCCGAGCGTATGCCGCATGACCTTTCCCATCTTGGCTTCCTTGCTGGTCAGATTGGTCGTCTTATTACCATTTCAACTACTCCG
RecA wild type [5]
  binding result: binds

## TTTTTTTTTTTTTTT (ssDNA) [TMR-T15]
RecA wild type [6]
  binding result: binds
